According to article PMC2912378 (PLoS ONE, 2010):

Molecular target: T1, RelA (p65) (endogenous, BV-2 microglial cells) (mouse (endogenous in BV-2), UniProt Q04207 1-549)
T1 construct: NF-kappa B family member RelA (p65), endogenous in the murine microglial cell line BV-2; source: endogenous, BV-2 whole cell lysate
Test: co-IP; whole cell lysates of BV-2 cells, untreated or treated with Tat (100nM) for 4h or 8h; immunoprecipitation with a RelA-specific antibody and Protein A/G+ agarose beads, 4°C, washed with ELB lysis buffer; immunoblot with RelB-specific antibody; densitometry normalised to precipitated RelA
Conditions: partners not purified

T1 sequence (Q04207 whole entry): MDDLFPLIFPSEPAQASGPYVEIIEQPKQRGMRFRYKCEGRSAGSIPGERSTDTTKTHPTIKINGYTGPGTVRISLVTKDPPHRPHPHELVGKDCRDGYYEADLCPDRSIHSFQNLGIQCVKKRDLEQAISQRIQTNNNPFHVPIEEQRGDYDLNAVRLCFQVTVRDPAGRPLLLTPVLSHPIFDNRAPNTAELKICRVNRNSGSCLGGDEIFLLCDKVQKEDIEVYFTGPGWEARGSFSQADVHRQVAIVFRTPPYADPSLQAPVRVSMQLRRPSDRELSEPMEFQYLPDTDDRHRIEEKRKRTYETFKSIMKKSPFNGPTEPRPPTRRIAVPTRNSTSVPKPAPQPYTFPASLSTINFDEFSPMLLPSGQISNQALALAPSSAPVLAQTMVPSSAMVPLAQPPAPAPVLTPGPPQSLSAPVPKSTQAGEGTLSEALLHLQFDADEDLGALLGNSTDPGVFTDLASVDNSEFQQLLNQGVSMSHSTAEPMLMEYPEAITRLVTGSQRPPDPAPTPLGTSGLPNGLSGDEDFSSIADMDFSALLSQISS

B1: RelB (endogenous, BV-2 microglial cells) (natural protein, mouse (endogenous in BV-2), UniProt Q04863 1-558, looked up)
chain: MPSRRAARESAPELGALGSSDLSSLSLTVSRTTDELEIIDEYIKENGFGLDGTQLSEMPRLVPRGPASLSSVTLGPAAPPPPATPSWSCTLGRLVSPGPCPRPYLVITEQPKQRGMRFRYECEGRSAGSILGESSTEASKTLPAIELRDCGGLREVEVTACLVWKDWPHRVHPHSLVGKDCTDGVCRVRLRPHVSPRHSFNNLGIQCVRKKEIEAAIERKIQLGIDPYNAGSLKNHQEVDMNVVRICFQASYRDQQGHLHRMDPILSEPVYDKKSTNTSELRICRINKESGPCTGGEELYLLCDKVQKEDISVVFSTASWEGRADFSQADVHRQIAIVFKTPPYEDLEISEPVTVNVFLQRLTDGVCSEPLPFTYLPRDHDSYGVDKKRKRGLPDVLGELSSSDPHGIESKRRKKKPVFLDHFLPGHSSGLFLPPSALQPADSDFFPASISLPGLEPPGGPDLLDDGFAYDPSAPTLFTMLDLLPPAPPLASAVVGSGGAGATVVESSGPEPLSLDSFAAPGPGDVGTASLVGSNMFPNQYREAAFGGGLLSPGPEAT
notes: NF-kappa B family member RelB, endogenous in the murine microglial cell line BV-2; source: endogenous, BV-2 whole cell lysate
- fold increase of co-precipitated RelB (normalised to precipitated RelA) with Tat against untreated cells: 4 fold
